From paper PMC10709394, “Structural basis for nucleosome binding and catalysis by the yeast Rpd3S/HDAC holoenzyme” (Cell Research, 2023)

B1: Rpd3 (enzyme, yeast, UniProt P32561 1-433, looked up)
chain: MVYEATPFDPITVKPSDKRRVAYFYDADVGNYAYGAGHPMKPHRIRMAHSLIMNYGLYKKMEIYRAKPATKQEMCQFHTDEYIDFLSRVTPDNLEMFKRESVKFNVGDDCPVFDGLYEYCSISGGGSMEGAARLNRGKCDVAVNYAGGLHHAKKSEASGFCYLNDIVLGIIELLRYHPRVLYIDIDVHHGDGVEEAFYTTDRVMTCSFHKYGEFFPGTGELRDIGVGAGKNYAVNVPLRDGIDDATYRSVFEPVIKKIMEWYQPSAVVLQCGGDSLSGDRLGCFNLSMEGHANCVNYVKSFGIPMMVVGGGGYTMRNVARTWCFETGLLNNVVLDKDLPYNEYYEYYGPDYKLSVRPSNMFNVNTPEYLDKVMTNIFANLENTKYAPSVQLNHTPRDAEDLGDVEEDSAEAKDTKGGSQYARDLHVEHDNEFY
notes: Rpd3, yeast class I histone deacetylase, endogenous catalytic subunit of Rpd3S; Subunit of the endogenous holoenzyme; also called Rpd3/HDAC
B2: Eaf3 (natural protein, yeast, UniProt Q12432 1-401, looked up)
chain: MVDLEQEFALGGRCLAFHGPLMYEAKILKIWDPSSKMYTSIPNDKPGGSSQATKEIKPQKLGEDESIPEEIINGKCFFIHYQGWKSSWDEWVGYDRIRAYNEENIAMKKRLANEAKEAKKSLLEQQKKKKLSTSLGGPSNGGKRKGDSRSNASISKSTSQSFLTSSVSGRKSGRSSANSLHPGSSLRSSSDQNGNDDRRRSSSLSPNMLHHIAGYPTPKISLQIPIKLKSVLVDDWEYVTKDKKICRLPADVTVEMVLNKYEHEVSQELESPGSQSQLSEYCAGLKLYFDKCLGNMLLYRLERLQYDELLKKSSKDQKPLVPIRIYGAIHLLRLISVLPELISSTTMDLQSCQLLIKQTEDFLVWLLMHVDEYFNDKDPNRSDDALYVNTSSQYEGVALGM
notes: Two copies stand in the holoenzyme; also called Eaf3 I; Eaf3 II
B3: Rco1 (natural protein, yeast, UniProt Q04779 1-684, looked up)
chain: MDTSKKDTTRSPSHSNSSSPSSSSLSSSSSKEKKRPKRLSSQNVNYDLKRRKIITSEGIERSFKNEHSNLAVEDNIPEEEPKELLEKDSKGNIIKLNEPSTISEDSKVSVTGLPLNKGPSEKIKRESLWNYRKNLGGQSNNSEMTLVPSKRFTQVPKNFQDLNRNDLKTFLTENMTEESNIRSTIGWNGDIINRTRDREPESDRDNKKLSNIRTKIILSTNATYDSKSKLFGQNSIKSTSNASEKIFRDKNNSTIDFENEDFCSACNQSGSFLCCDTCPKSFHFLCLDPPIDPNNLPKGDWHCNECKFKIFINNSMATLKKIESNFIKQNNNVKIFAKLLFNIDSHNPKQFQLPNYIKETFPAVKTGSRGQYSDENDKIPLTDRQLFNTSYGQSITKLDSYNPDTHIDSNSGKFLICYKCNQTRLGSWSHPENSRLIMTCDYCQTPWHLDCVPRASFKNLGSKWKCPLHSPTKVYKKIHHCQEDNSVNYKVWKKQRLINKKNQLYYEPLQKIGYQNNGNIQIIPTTSHTDYDFNQDFKITQIDENSIKYDFFDKIYKSKMVQKRKLFQFQESLIDKLVSNGSQNGNSEDNMVKDIASLIYFQVSNNDKSSNNKSASKSNNLRKLWDLKELTNVVVPNELDSIQFNDFSSDEIKHLLYLKKIIESKPKEELLKFLNIENPENQSE
notes: Two copies stand in the holoenzyme; also called Rco1 I; Rco1 II

Legend:
Experiment in all cases: cryo-EM structure; endogenous Rpd3S incubated with an excess of H3Kc36me3 mononucleosome (70-bp DNA link at one end), fractionated by gel filtration, concentrated, no cross-linking; 3.7 Å
[1] = target: T1, Sin3 (yeast, UniProt P22579 1-1536); conditions: both partners purified
T1 construct: Sin3, yeast, endogenous scaffold subunit of Rpd3S

[2] = target: B3; conditions: both partners purified
[3] = target: B1; conditions: both partners purified
[4] = target: the molecule itself

T1 sequence (P22579 whole entry): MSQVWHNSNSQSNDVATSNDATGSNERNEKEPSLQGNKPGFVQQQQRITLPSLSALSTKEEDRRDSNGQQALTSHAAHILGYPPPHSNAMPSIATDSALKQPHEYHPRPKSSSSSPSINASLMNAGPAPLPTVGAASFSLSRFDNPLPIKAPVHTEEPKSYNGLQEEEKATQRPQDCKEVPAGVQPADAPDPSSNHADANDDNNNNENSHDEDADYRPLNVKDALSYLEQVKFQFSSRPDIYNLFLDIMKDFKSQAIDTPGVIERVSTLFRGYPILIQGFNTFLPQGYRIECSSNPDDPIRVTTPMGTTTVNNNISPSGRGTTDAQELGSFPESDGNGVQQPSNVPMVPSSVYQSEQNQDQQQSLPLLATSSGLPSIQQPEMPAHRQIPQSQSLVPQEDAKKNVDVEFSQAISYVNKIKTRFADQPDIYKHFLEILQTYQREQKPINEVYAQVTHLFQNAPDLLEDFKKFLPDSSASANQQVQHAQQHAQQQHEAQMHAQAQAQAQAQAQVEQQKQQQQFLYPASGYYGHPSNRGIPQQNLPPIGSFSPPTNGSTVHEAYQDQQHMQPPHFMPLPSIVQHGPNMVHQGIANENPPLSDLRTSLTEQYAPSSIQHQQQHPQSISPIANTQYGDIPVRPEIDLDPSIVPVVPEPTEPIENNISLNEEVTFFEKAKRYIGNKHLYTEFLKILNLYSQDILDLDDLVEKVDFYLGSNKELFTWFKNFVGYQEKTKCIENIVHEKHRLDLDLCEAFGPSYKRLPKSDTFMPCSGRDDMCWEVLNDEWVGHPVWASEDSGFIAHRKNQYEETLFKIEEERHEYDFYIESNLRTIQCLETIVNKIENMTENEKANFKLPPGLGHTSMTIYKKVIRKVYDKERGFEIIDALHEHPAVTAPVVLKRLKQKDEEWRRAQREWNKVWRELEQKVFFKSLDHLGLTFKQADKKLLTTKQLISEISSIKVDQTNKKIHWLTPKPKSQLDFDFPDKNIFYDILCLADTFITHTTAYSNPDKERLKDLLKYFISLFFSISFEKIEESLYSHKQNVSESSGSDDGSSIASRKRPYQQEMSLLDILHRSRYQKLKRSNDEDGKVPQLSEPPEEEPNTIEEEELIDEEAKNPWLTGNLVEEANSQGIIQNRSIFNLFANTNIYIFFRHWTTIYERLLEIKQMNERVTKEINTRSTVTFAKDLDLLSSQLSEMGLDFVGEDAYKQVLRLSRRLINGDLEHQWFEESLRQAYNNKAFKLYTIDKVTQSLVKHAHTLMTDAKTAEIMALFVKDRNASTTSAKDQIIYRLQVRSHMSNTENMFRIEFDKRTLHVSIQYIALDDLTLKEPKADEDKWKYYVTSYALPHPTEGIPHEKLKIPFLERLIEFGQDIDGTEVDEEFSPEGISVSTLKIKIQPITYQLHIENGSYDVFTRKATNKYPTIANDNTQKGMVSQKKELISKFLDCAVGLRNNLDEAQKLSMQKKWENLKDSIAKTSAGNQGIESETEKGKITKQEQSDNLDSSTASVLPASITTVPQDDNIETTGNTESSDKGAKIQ

B1: binds [1]; binds [2].

B2: binds [3]; binds [1]; binds [2].

B3 was tested, and the binding result [1] was “binds” and the “stoichiometry N” value [4] was 2.
